{"source": "paper PMC3484135", "about": "“A Divalent Ion Is Crucial in the Structure and Dominant-Negative Function of ID Proteins, a Class of Helix-Loop-Helix Transcription Regulators” (PLoS ONE, 2012)", "biological_target": "the molecule itself", "experiment": "crystal structure; hanging drop vapor diffusion; protein 7 mg/ml in 50 mM Tris pH 8.0, 100 mM NaCl; precipitant 0.1 M MES pH 6.5, 2.0 M potassium acetate; 2.1Å native dataset, phased from a Se-Met SAD dataset"}
{"protein": "ID2 HLH (residues 24–82) with a C-terminal 14 amino acid stabilising polypeptide (domain or fragment, human, ID2, human, HLH domain, residues 24–82, cloned from full-length cDNA (Genecopoeia Z0585); C-terminal 14 amino acid polypeptide added to increase stability; Expressed from pDest-565 with a TEV site at the N terminus of ID2 HLH; The native crystal is called ID2-Nterm-HLH in the methods, and a Se-Met form (ID2-HLH-Se-Met) was used for phasing; also called wild type ID2; ID2 WT; source: E. coli …) RSKTPVDDPMSLLYNMNDCYSKLKELVPSIPQNKKVSKMEILQHVIDYILDLQIALDSHLKPSFLVQSGDIAS", "values": [{"measurement": "stoichiometry N", "result": 2}]}
